Assay results published in US7285618 (JAPAN TOBACCO, dated 2007).

Molecular target: G protein (Gi) purified from rabbit liver (rabbit)
Assay: cell-based or functional assay

Binder: LSFLIPAGWVLSHLDHYKRSSAA [cytochrome C oxidase subunit peptide-1 (COSP-1)]
- GTPase activity of Gi: ~6 fold
